In patent US20250290928A1, “METHOD, KIT AND DEVICE FOR DETECTING EXTRACELLULAR VESICLES” (priority 2022, published 2025):
Values joined by “and” are separate entries in the source; they are usually repeats but may differ in a detail not shown here. Equal values may be shown once. *: point of attachment. 5FAM = O=C1OC2(c3ccc(O)cc3Oc3cc(O)ccc32)c2ccc(C(=O)*)cc21; TQ2 = quencher

Legend:
Type in all cases: biochemical
[1] = biological target: T1, MMP14 in the A549-derived extracellular vesicles (Homo sapiens, UniProt P50281); experiment: Evaluation of MMP14 activity of A549-derived extracellular vesicles with 96-well plate; conditions: reporter 5 μM, 37° C.
T1 construct: host or cells: A549 (purified exosomes)
Protocol: The MMP14 activity was evaluated with a 96-well plate (manufactured by Thermo Fisher Scientific Inc., model number: 137101). A fluorescence intensity was measured with a fluorescence plate reader (Synergy MX, manufactured by BioTek Instruments, Inc.) at […] every 5 min for 1 hour. For measurement wavelengths, an excitation wavelength of 485±20 nm and a fluorescence wavelength of 528±20 nm were used.
With regard to the COLO201-derived extracellular vesicles, the concentration of the solution was set to x1/10, and 3-fold serial dilution was performed to prepare standard samples with three concentrations.
50 μL of the MMP14 detection solution was added to 50 μL of each of the samples, a reaction was performed at 37° C., and MMP14 activity was evaluated.
(§1) The concentration of the solution is 20 μg/mL. […] The concentration of the solution was set to x1, and 10-fold serial dilution was performed to prepare standard samples with five concentrations.
(§2) The concentration of the solution is 10 μg/mL.
Evaluation was performed in the same manner as in Example 1 except that the reaction temperature was set to 23° C. ΔRFU was calculated by subtracting the measured value of the sample for BG measurement from the measured value of each of the samples.

[2] = biological target: T2, MMP14 in the MDA-MB-231-derived extracellular vesicles (Homo sapiens, UniProt P50281); experiment: Digital detection through MMP14 activity of MDA-MB-231-derived extracellular vesicles captured on anti-CD9/CD63/CD81 antibody-immobilized particles; conditions: for Expected value λ / Number of positives / Positive ratio: 5 h; for Expected value λ (MMP14) / Number of positives (MMP14): Example 33, 30° C., 4 h
T2 construct: in terms of intact MMP14 with a molecular weight of 70 kDa
Protocol: as §2
For detection of MMP14 activity, 1 mM Custom #2 was diluted with the buffer (4) to prepare a MMP14 detection solution containing 10 μM Custom #2.
The number of the particles was increased 4-fold, and a reaction was allowed to proceed. However, the number and concentration of the particles used to fill the wells are finally the same as those in other Examples.
The concentration of the solution is 10 μg/mL. The solution was subjected to 3-fold serial dilution to prepare standard samples with seven concentrations.
For detection of MMP14 activity, 1 mM Custom #2 and a 100 µM resorufin β-D-galactopyranoside solution were diluted with the buffer (4) to prepare a MMP14 and CD9/CD63/CD81 cocktail detection solution (1) containing 10 μM Custom #2 and 5 μM resorufin β-D-galactopyranoside. In addition, the solution was diluted 2-fold with the buffer (4) to prepare a detection solution (2). Nonfluorescent resorufin β-D-galactopyranoside is degraded by β-galactosidase to produce fluorescent resorufin. In this case, the maximum wavelengths of excitation and fluorescence of resorufin are 570 nm and 585 nm, respectively.
In addition, an antibody-immobilized particle solution was prepared and stored at 4° C. until use, in the same manner as in Example 28 except that Magnosphere MS300/Carboxyl (manufactured by JSR Corporation) (hereinafter abbreviated as “MS300C”) was used as magnetic particles.
For detection of MMP14 activity, 1 mM Custom #2 was diluted with the buffer (4) to prepare a MMP14 detection solution containing 5 μM Custom #2. In addition, 1 mM Custom #2T was diluted with the buffer (4) to prepare a MMP14 detection solution containing 2.5 μM Custom #2T.
An antibody-immobilized particle solution was prepared and stored at 4° C. until use, in the same manner as in Example 28 except that: MS300C was used as magnetic particles; and blocking treatment was performed at 4° C. or room temperature through use of Blockmaster CE210 or CE510 (manufactured by Medical & Biological Laboratories Co., Ltd.) instead of Bead Blocking Buffer (manufactured by Quanterix Corporation).
For detection of MMP14 activity, 1 mM Custom #2 and 1 mM Custom #2T were diluted with the buffer (4) to prepare a MMP14 detection solution containing 5 μM Custom #2 and 2.5 μM Custom #2T serving as the reporter molecules in the same system. […]

[3] = biological target: T1, MMP14 in the A549-derived extracellular vesicles; experiment: Digital detection of A549-derived extracellular vesicles through MMP14 activity in wells (Simoa Discs)
Protocol: as §1, §2

[4] = biological target: T2, MMP14 in the MDA-MB-231-derived extracellular vesicles; experiment: Digital detection through MMP14 activity of MDA-MB-231-derived extracellular vesicles captured on Tim4-immobilized magnetic particles; conditions: Table 56, MB231 Present, 24 hours at 23° C.
[5] = Example 28, 37° C., EV 0 (BG, free of extracellular vesicles)
[6] = Example 28, 37° C., EV 1 a.u. (sample 10 μg/mL)
[7] = Example 31, 4-fold number of particles, 37° C., EV 1 a.u., single image
[8] = Example 31, 37° C., EV 1 a.u., sum of the two images
[9] = Particle MS300C, MB231 Absent, 24 hours of reaction
[10] = Particle MS300C, MB231 Present, 24 hours of reaction
[11] = Particle Simoa, MB231 Absent, 24 hours of reaction
[12] = Particle Simoa, MB231 Present, 24 hours of reaction
[13] = Example 27, 23° C., 5 h, EV 0 (free of extracellular vesicles)
[14] = Example 27, 23° C., 5 h, EV 0.01 a.u.
[15] = Example 27, 23° C., 5 h, EV 0.1 a.u.
[16] = Example 27, reporter 10 μM, 23° C., 5 h, EV 1 a.u. (x1=5 μg/mL)
[17] = Example 21, 37° C., 5 h, BG, EV 0 (free of extracellular vesicles, pseudopositive)
[18] = Example 21, 37° C., 5 h, ΔBG Absent, EV 0.0001 a.u.
[19] = Example 21, 37° C., 5 h, ΔBG Absent, EV 0.001 a.u.
[20] = Example 21, 37° C., 5 h, ΔBG Absent, EV 0.01 a.u.
[21] = Example 21, 37° C., 5 h, ΔBG Absent, EV 0.1 a.u.
[22] = Example 21, 37° C., 5 h, ΔBG Absent, EV 1 a.u. (x1=10 μg/mL)
[23] = Example 21, 37° C., 5 h, ΔBG Present (positives at EV 0 subtracted), EV 1 a.u.
[24] = Example 21, 37° C., 5 h, ΔBG Present, EV 0.0001 a.u.
[25] = Example 21, 37° C., 5 h, ΔBG Present, EV 0.001 a.u.
[26] = Example 21, 37° C., 5 h, ΔBG Present, EV 0.01 a.u.
[27] = Example 21, 37° C., 5 h, ΔBG Present, EV 0.1 a.u.

[5-FAM]GGPLGLAGGK(TQ2)[OH] (5FAM-GGPLGLAGGK(TQ2)-OH) [Custom #2]
fluorescence intensity at the same extracellular vesicle concentration ([1]; Example 10, buffer (3)): higher than the fluorescence intensity from Custom #1 | Extracellular vesicle concentration ([2]; Example 28, 1 μg of protein, 5.0×10^5 particles): 8.0×10^4 extracellular vesicles/μg of protein | Expected value λ [2, 5]: 0.000493 | Number of positives [2, 5]: 1 | Positive ratio [2, 5]: 0.000493 | Expected value λ [2, 6]: 0.1599 | Number of positives [2, 6]: 338 | Positive ratio [2, 6]: 0.1478 | expected value Δλ per particle (value obtained by subtracting BG) ([2]; Example 28, 5 h): 0.1594 | Extracellular vesicle concentration ([2]; Example 31, 0.5 μg of protein, 2.0×10^6 particles): 1.8×10^5 extracellular vesicles/μg of protein | Expected value λ [2, 7]: 0.04458 and 0.04511 | Number of positives [2, 7]: 402 and 410 | Positive ratio [2, 7]: 0.0436 and 0.04411 | Expected value λ [2, 8]: 0.04484 | Number of positives [2, 8]: 812 | Positive ratio [2, 8]: 0.04386 | expected value Δλ per particle (value obtained by subtracting BG) ([2]; Example 31, 5 h, sum of the two images): 0.04435 | Expected value λ (MMP14) ([2]; EV 0 (BG)): 0.00428 | Number of positives (MMP14) ([2]; EV 0 (BG)): 9 | Expected value λ (MMP14) ([2]; EV X1 (sample 10 μg/mL)): 0.139 | Number of positives (MMP14) ([2]; EV X1 (sample 10 μg/mL)): 298 | Expected value λ (MMP14) ([2]; EV X1/3): 0.0829 | Number of positives (MMP14) ([2]; EV X1/3): 218 | Expected value λ (MMP14) ([2]; EV X1/9): 0.0569 | Number of positives (MMP14) ([2]; EV X1/9): 162 | Expected value λ (MMP14) ([2]; EV X1/27): 0.0315 | Number of positives (MMP14) ([2]; EV X1/27): 78 | Expected value λ (MMP14) ([2]; EV X1/81): 0.0118 | Number of positives (MMP14) ([2]; EV X1/81): 19 | Expected value λ (MMP14) ([2]; EV X1/243): 0.0108 | Number of positives (MMP14) ([2]; EV X1/243): 20 | Expected value λ (MMP14) ([2]; EV X1/729): 0.0120 | Number of positives (MMP14) ([2]; EV X1/729): 22 | extracellular vesicles detected with MMP14 present in wells (particles) containing extracellular vesicles detected with at least any one of CD9, CD63, and CD81 ([2]; Example 33, concentration [a.u.] of x1, multiplex with resorufin β-D-galactopyranoside): 99.7% | Extracellular vesicle concentration [2, 9]: 0.0113 ×10^5/μg of protein | Particle Expected value λ [2, 9]: 0.00226 | Extracellular vesicle concentration [2, 10]: 1.4495 ×10^5/μg of protein | Particle Expected value λ [2, 10]: 0.2899 | Extracellular vesicle concentration [2, 11]: 0.0061 ×10^5/μg of protein | Particle Expected value λ [2, 11]: 0.00122 | Extracellular vesicle concentration [2, 12]: 1.5232 ×10^5/μg of protein | Particle Expected value λ [2, 12]: 0.3046 | Extracellular vesicle concentration ([3]; Example 27): 1.1×10^9 /μg of protein | Expected value λ [3, 13]: 0.000023 | Number of positives [3, 13]: 2 | Positive ratio [3, 13]: 0.000023 | Expected value λ [3, 14]: 0.004117 | Number of positives [3, 14]: 357 | Positive ratio [3, 14]: 0.004109 | Expected value λ [3, 15]: 0.03235 | Number of positives [3, 15]: 2,766 | Positive ratio [3, 15]: 0.03184 | λ at x1 in the approximation of FIG. 58 ([3]; Example 27, 5 h): 0.2767 | concentration of the extracellular vesicles that can be detected based on the MMP14 activity ([3]; Example 27, reaction solution 5 μg of protein/mL, 50 fL): 5.5e+09 mL⁻¹ | Expected value λ [3, 16]: 0.2767 | Number of positives [3, 16]: 20,982 | Positive ratio [3, 16]: 0.2417 | Particle Number of positives ([4]; Particle MS300C): 1,288 | Particle Number of positives ([4]; Particle Simoa): 1,234

[5-FAM]GRIGFLRTAK(TQ2)[OH] (5FAM-GRIGFLRTAK(TQ2)-OH) [Custom #1]
extracellular vesicle concentration at which MMP14 activity was able to be detected with a 96-well plate ([1]; Example 21, buffer (4)): ≥ 10 µg/mL | Expected value λ [3, 17]: 0.000656 | Number of positives [3, 17]: 38 | Positive ratio [3, 17]: 0.000656 | Expected value λ [3, 18]: 0.000725 | Number of positives [3, 18]: 42 | Positive ratio [3, 18]: 0.000724 | Expected value λ [3, 19]: 0.000985 | Number of positives [3, 19]: 57 | Positive ratio [3, 19]: 0.000984 | Expected value λ [3, 20]: 0.00207 | Number of positives [3, 20]: 119 | Positive ratio [3, 20]: 0.00206 | Expected value λ [3, 21]: 0.0137 | Number of positives [3, 21]: 789 | Positive ratio [3, 21]: 0.0136 | Expected value λ [3, 22]: 0.149 | Number of positives [3, 22]: 8,036 | Positive ratio [3, 22]: 0.139 | Expected value λ [3, 23]: 0.148 | Number of positives [3, 23]: 7,998 | Positive ratio [3, 23]: 0.138 | Expected value λ [3, 24]: 0.000069 | Number of positives [3, 24]: 4 | Positive ratio [3, 24]: 0.000069 | Expected value λ [3, 25]: 0.000328 | Number of positives [3, 25]: 19 | Positive ratio [3, 25]: 0.000328 | Expected value λ [3, 26]: 0.00141 | Number of positives [3, 26]: 81 | Positive ratio [3, 26]: 0.0014 | Expected value λ [3, 27]: 0.013 | Number of positives [3, 27]: 751 | Positive ratio [3, 27]: 0.0129 | λ at x1 in an approximation with BG correction ([3]; Example 21, 5 h): 0.120 | λ at x1 in an approximation without BG correction ([3]; Example 21, 5 h): 0.102 | extracellular vesicle concentration at which MMP14 activity was able to be detected in the microcompartment ([3]; Example 21, Simoa Discs, buffer (4), reporter 5 μM, 37° C., 5 h): ≥ 100 ng/mL | Extracellular vesicle concentration ([3]; Example 21, with BG correction): 2.4e+09 mL⁻¹ | extracellular vesicles in which MMP14 activity can be detected, contained in 1 μL of the extracellular vesicles (50 μg of protein in 50 μL of PBS) ([3]; Example 21, with BG correction): 2.4×10^8 | Extracellular vesicle concentration ([3]; Example 21, without BG correction): 2.0×10^8 /μg of protein | Extracellular vesicle concentration ([3]; Example 21, without BG correction, reaction solution 10 μg of protein/mL, 50 fL): 2e+09 mL⁻¹
